Numbered stars: 1 amine (or outer) side, 2 acyl side, 3 side chain; on linkers, the order of the positions; unused ones are H or OH. Bridge positions count the residues as written; N and C are the ends. Square brackets hold non-standard residues; d marks the D form. Ends that are not written are not given here. * marks the point of attachment. deaminoTMG = tetramethylguanyl on 5-aminopentanoyl (deaminoTMG-APA, formula II); guanyl = guanyl, N-terminal group, N=C(N)*; 2Nal = N[C@@H](Cc1ccc2ccccc2c1)C(=O)O; Glutaryl = O=C(CCCC(=O)[*:2])[*:1]; Benzoyl(4-F) = O=C(c1ccc(F)cc1)*; dCit = NC(=O)NCCC[C@@H](N)C(=O)O; Cit = NC(=O)NCCC[C@H](N)C(=O)O; Suc = O=C(CCC(=O)[*:2])[*:1]; Ahx = NCCCCCC(=O)O; Ava = NCCCCC(=O)O
Biological target: T1, CXCR4 receptor (human, UniProt P61073 1-352)
T1 construct: whole, on cells; Endogenous receptor on human cells
T1 sequence (P61073 whole entry): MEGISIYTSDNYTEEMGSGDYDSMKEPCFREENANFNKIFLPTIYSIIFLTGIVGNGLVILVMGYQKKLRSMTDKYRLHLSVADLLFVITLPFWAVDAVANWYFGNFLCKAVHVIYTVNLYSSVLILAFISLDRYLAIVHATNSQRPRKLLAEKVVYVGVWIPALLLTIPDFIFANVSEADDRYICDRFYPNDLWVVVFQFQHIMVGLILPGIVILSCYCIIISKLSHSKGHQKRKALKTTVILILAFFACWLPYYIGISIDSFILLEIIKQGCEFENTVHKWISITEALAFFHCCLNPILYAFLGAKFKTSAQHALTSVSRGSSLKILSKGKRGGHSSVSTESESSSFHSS
Experiment: cell-based or functional assay

IC50 of inhibition of SDF-1α-induced migration of Jurkat cells (Transwell) [nM]	Binder
0.65	{Benzoyl(4-F)}-RR[2Nal]CY[Cit]K[dK]PYR[Cit]CR-NH2 (disulfide 4-13; also: acetate salt) [4F-benzoyl-TN14003]

Biological target: CXCR4 on mouse splenocytes (mouse, UniProt P70658 1-359)
Sequence (P70658 whole entry): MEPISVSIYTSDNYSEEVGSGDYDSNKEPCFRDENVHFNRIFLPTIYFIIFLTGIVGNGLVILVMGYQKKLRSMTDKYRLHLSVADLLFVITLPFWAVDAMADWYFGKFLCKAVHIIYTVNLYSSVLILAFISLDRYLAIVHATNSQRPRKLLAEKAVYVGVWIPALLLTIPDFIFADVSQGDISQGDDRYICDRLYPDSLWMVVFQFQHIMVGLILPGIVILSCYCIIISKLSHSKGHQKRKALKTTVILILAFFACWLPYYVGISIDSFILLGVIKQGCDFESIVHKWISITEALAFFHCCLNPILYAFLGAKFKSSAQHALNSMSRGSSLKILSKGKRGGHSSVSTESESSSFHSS
Experiment: cell-based or functional assay

IC50 of inhibition of SDF-1-induced migration of mouse splenocytes (Transwell) [nM]	Binder
0.54	{Benzoyl(4-F)}-RR[2Nal]CY[Cit]K[dK]PYR[Cit]CR-NH2 (disulfide 4-13; also: acetate salt) [4F-benzoyl-TN14003]

Biological target: T1, CXCR4 receptor
Experiment: displacement of 125I-CXCL12 from Jurkat cells, filter binding
Protocol: 50 μL of Jurkat human T-cell leukemia cells (6×10⁶ cells/mL) suspended in buffer (Dulbecco's PBS solution (pH 7.0) containing 0.5% BSA, 20 mM HEPES), 25 μL of test compounds (Table 2: each compound being synthesized in the form of acetate salt) diluted by buffer and 25 μL of 200 p M 125I-CXCL12 solution were respectively dispensed to each well of the plate, and were subjected to fixation reaction for 1 hour at room temperature. After reaction, suction was made toward the reaction solution by 96 well GF/C filter plate, and each well's radioactivity was measured by top count. As the radioactivity index of 100% when the test compound was not added, and 0% when 100 nM of non-radioisotope-labeled CXCL12 was added, the inhibitory activity of each test compound was measured.

Binder	IC50 [nM]
H-RR[2Nal]CY[dE]K[dCit]PYR[Cit]CR-NH2 (disulfide 4-13 (inferred); also: acetate salt) [TE14012]	5.4
RRXCYXKXPYRXCR (X at 3 = Nal (L-3-(2-naphthyl)alanine); X at 6 and 12 = Cit (L-citrulline); X at 8 = D-Cit (D-citrulline); disulfide Cys4-Cys13; free N-terminus (H-); C-terminal amide (-NH2), Tested as acetate salt) [TC14012]	2.7
H-RR[2Nal]CYEK[dK]PYR[Cit]CR-OH (disulfide 4-13 (inferred); not fully specified; printed as H-Arg-Arg-Nal-Cys-Tyr-Glu-Lys-DLys-Pro-Tyr-Arg-Cit-Cys-Arg-OH; also: acetate salt) [TE14003]	5
H-RR[2Nal]CY[dE]K[dE]PYR[Cit]CR-NH2 (disulfide 4-13; also: acetate salt) [TE14013]	9.3
H-RE[2Nal]CYRK[dK]PYR[Cit]CR-OH (disulfide 4-13; also: acetate salt) [TE14002]	680
H-RR[2Nal]CYRK[dK]PYE[Cit]CR-OH (disulfide 4-13 (inferred); also: acetate salt) [TE14006]	5.6
tetramethylguanyl-RR[2Nal]CY[Cit]K[dE]PYR[Cit]CR-NH2 (disulfide 4-13; also: acetate salt) [TF3]	9.6
H-RR[2Nal]CY[Cit]K[dE]PYR[Cit]CR-NH2 (disulfide 4-13; also: acetate salt) [TE14011]	2.9
{Benzoyl(4-F)}-RR[2Nal]CY[Cit]K[dK]PYR[Cit]CR-NH2 (disulfide 4-13; also: acetate salt) [4F-benzoyl-TN14003]	0.99
guanyl-RR[2Nal]CY[Cit]K[dE]PYR[Cit]CR-NH2 (disulfide 4-13; also: acetate salt) [TF2]	3.3
H-RR[2Nal]CYRK[dE]PYR[Cit]CR-OH (disulfide 4-13; also: acetate salt) [TE14005]	2.2
H-RR[2Nal]CYRE[dK]PYR[Cit]CR-OH (disulfide 4-13 (inferred); not fully specified; printed as H-Arg-Arg-Nal-Cys-Tyr-Arg-Glu-DLys-Pro-Tyr-Arg-Cit-Cys-Arg-OH; also: acetate salt) [TE14004]	6.8
Ac-RR[2Nal]CY[Cit]K[dE]PYR[Cit]CR-NH2 (disulfide 4-13; also: acetate salt) [TF1]	11
tetramethylguanyl-R[2Nal]CY[Cit]K[dE]PYR[Cit]CR-NH2 (disulfide 3-12; also: acetate salt) [TF4]	9.9
{Benzoyl(4-F)}-RR[2Nal]CY[Cit]K[dE]PYR[Cit]CR-NH2 (disulfide 4-13; also: acetate salt) [TF5]	2.8

The next lines start with the values.

IC50 [nM]	Binder
3.9	{2‑fluorobenzoyl}-RR[2Nal]CY[Cit]K[dE]PYR[Cit]CR-NH2 (disulfide 4-13; also: acetate salt) [TF6]
79	H-R[2Nal]CY[Cit]K[dE]PYR[Cit]CR-NH2 (disulfide 3-12; also: acetate salt) [TF17]
2.6	H-RR[2Nal]CY[Cit]K[dK]PYR[Cit]CR-NH2 (disulfide 4-13; also: acetate salt, Tested as acetate salt) [TN14003]
4.6	{deaminoTMG-Ava}-R[2Nal]CY[Cit]K[dE]PYR[Cit]CR-NH2 (disulfide 3-12; also: acetate salt) [TF12]
8	XRRXCYXKXPYRXCRX (N-terminal tetramethylguanyl; Nal (L-3-(2-naphthyl)alanine) at 3; Cit (L-citrulline) at 6 and 12; D-Cit (D-citrulline) at 8; disulfide Cys4-Cys13; C-terminal amide (-NH2)) [TF18]
5.7	{5‑aminopentanoyl}-R[2Nal]CY[Cit]K[dE]PYR[Cit]CR-NH2 (disulfide 3-12; also: acetate salt) [TF7]
4.5	XRRXCYXKXPYRXCRX (N-terminal 6-aminohexanoyl (ACA); Nal (L-3-(2-naphthyl)alanine) at 3; Cit (L-citrulline) at 6 and 12; D-Cit (D-citrulline) at 8; disulfide Cys4-Cys13; C-terminal amide (-NH2)) [TF19]
48	Suc-R[2Nal]CY[Cit]K[dE]PYR[Cit]CR-NH2 (disulfide 3-12; also: acetate salt) [TF10]
250	guanyl-R[2Nal]CY[Cit]K[dE]PYR[Cit]CR-NH2 (disulfide 3-12; also: acetate salt) [TF9]
3.5	[Ahx]RR[2Nal]CYRK[dK]PYR[Cit]CR-OH (disulfide 5-14; also: acetate salt) [TF20]
49	{AZT-Glutaryl}-R[2Nal]CY[Cit]K[dE]PYR[Cit]CR-NH2 (disulfide 3-12; also: acetate salt) [TF14]
95	H-RR[2Nal]CY[Cit]K[dE]PYR[Cit]CR-NH2 (disulfide 4-13; also: reduced CH2-NH bond between residues 1 and 2, acetate salt) [TF15]
8.2	{2‑desamino‑arginyl}-R[2Nal]CY[Cit]K[dE]PYR[Cit]CR-NH2 (disulfide 3-12; also: acetate salt) [TF8]
21	{nelfinaviryl-Suc}-R[2Nal]CY[Cit]K[dE]PYR[Cit]CR-NH2 (disulfide 3-12; also: acetate salt) [TF13]
630	Glutaryl-R[2Nal]CY[Cit]K[dE]PYR[Cit]CR-NH2 (disulfide 3-12; also: acetate salt) [TF11]

Source: US20060264378A1 (BIOKINE THERAPEUTICS, published 2006)
